Legend:
Test in all cases: SPR
[1] = biological target: GST-APPBP1-UBA3 (Cys216Ala) (human) (UniProt Q13564)
[2] = biological target: GST-APPBP1-UBA3Arg190Ala (Cys216Ala) (human) (UniProt Q13564)
[3] = biological target: GST-APPBP1-UBA3Arg190Gln (Cys216Ala) (human) (UniProt Q13564)

| Kd [1] | Kd [2] | Kd [3] | Substance |
| --- | --- | --- | --- |
| > 10 µM | 1.66 µM | 1.02 µM | NEDD8Ala72Arg (from UniProt Q15843 1-76) (natural protein) |
| > 10 µM | 2.97 µM | 0.886 µM | NEDD8Ala72Lys (from UniProt Q15843 1-76) (natural protein) |
| 8.75 µM | > 10 µM | > 10 µM | NEDD8Ala72Gln (from UniProt Q15843 1-76) (natural protein) |
| 0.333 µM | 5.5 µM | 3.46 µM | NEDD8 (from UniProt Q15843 1-76) (natural protein) |
